# Laboratory results as given in patent US20210139548A1 (published 2021).
# *1 amine or outer side, *2 acyl side, *3 side chain or, on linkers, in order; H or OH if unused. Side-chain parts run from the residue outwards. The star is where a group is joined. C18 diacid = O=C(O)CCCCCCCCCCCCCCCCC(=O)*; γGlu = O=C(O)[C@H](CCC(=O)[*:2])N[*:1]; Isovaleryl = CC(C)CC(=O)*; AEEA = NCCOCCOCC(=O)O
# B1: Compound 54 (peptide)
# peptide: Isovaleryl-APEK([AEEA-AEEA-γGlu-C18 diacid])PEEDASPEELQRYYVSLRHYYNWLTRQRY-NH2
# SMILES: CC(C)CC(=O)N[C@@H](C)C(=O)N1CCC[C@H]1C(=O)N[C@@H](CCC(=O)O)C(=O)N[C@@H](CCCCNC(=O)COCCOCCNC(=O)COCCOCCNC(=O)CC[C@H](NC(=O)CCCCCCCCCCCCCCCCC(=O)O)C(=O)O)C(=O)N1CCC[C@H]1C(=O)N[C@@H](CCC(=O)O)C(=O)N[C@@H](CCC(=O)O)C(=O)N[C@@H](CC(=O)O)C(=O)N[C@@H](C)C(=O)N[C@@H](CO)C(=O)N1CCC[C@H]1C(=O)N[C@@H](CCC(=O)O)C(=O)N[C@@H](CCC(=O)O)C(=O)N[C@@H](CC(C)C)C(=O)N[C@@H](CCC(N)=O)C(=O)N[C@@H](CCCNC(=N)N)C(=O)N[C@@H](Cc1ccc(O)cc1)C(=O)N[C@@H](Cc1ccc(O)cc1)C(=O)N[C@H](C(=O)N[C@@H](CO)C(=O)N[C@@H](CC(C)C)C(=O)N[C@@H](CCCNC(=N)N)C(=O)N[C@@H](Cc1c[nH]cn1)C(=O)N[C@@H](Cc1ccc(O)cc1)C(=O)N[C@@H](Cc1ccc(O)cc1)C(=O)N[C@@H](CC(N)=O)C(=O)N[C@@H](Cc1c[nH]c2ccccc12)C(=O)N[C@@H](CC(C)C)C(=O)N[C@H](C(=O)N[C@@H](CCCNC(=N)N)C(=O)N[C@@H](CCC(N)=O)C(=O)N[C@@H](CCCNC(=N)N)C(=O)N[C@@H](Cc1ccc(O)cc1)C(N)=O)[C@@H](C)O)C(C)C
# B2: Compound 11 (peptide)
# peptide: Isovaleryl-APEK([AEEA-AEEA-γGlu-C18 diacid])PEEDASPEEIQQYYVSLRHYYNWLTRQRY-NH2
# SMILES: CC[C@H](C)[C@H](NC(=O)[C@H](CCC(=O)O)NC(=O)[C@H](CCC(=O)O)NC(=O)[C@@H]1CCCN1C(=O)[C@H](CO)NC(=O)[C@H](C)NC(=O)[C@H](CC(=O)O)NC(=O)[C@H](CCC(=O)O)NC(=O)[C@H](CCC(=O)O)NC(=O)[C@@H]1CCCN1C(=O)[C@H](CCCCNC(=O)COCCOCCNC(=O)COCCOCCNC(=O)CC[C@H](NC(=O)CCCCCCCCCCCCCCCCC(=O)O)C(=O)O)NC(=O)[C@H](CCC(=O)O)NC(=O)[C@@H]1CCCN1C(=O)[C@H](C)NC(=O)CC(C)C)C(=O)N[C@@H](CCC(N)=O)C(=O)N[C@@H](CCC(N)=O)C(=O)N[C@@H](Cc1ccc(O)cc1)C(=O)N[C@@H](Cc1ccc(O)cc1)C(=O)N[C@H](C(=O)N[C@@H](CO)C(=O)N[C@@H](CC(C)C)C(=O)N[C@@H](CCCNC(=N)N)C(=O)N[C@@H](Cc1c[nH]cn1)C(=O)N[C@@H](Cc1ccc(O)cc1)C(=O)N[C@@H](Cc1ccc(O)cc1)C(=O)N[C@@H](CC(N)=O)C(=O)N[C@@H](Cc1c[nH]c2ccccc12)C(=O)N[C@@H](CC(C)C)C(=O)N[C@H](C(=O)N[C@@H](CCCNC(=N)N)C(=O)N[C@@H](CCC(N)=O)C(=O)N[C@@H](CCCNC(=N)N)C(=O)N[C@@H](Cc1ccc(O)cc1)C(N)=O)[C@@H](C)O)C(C)C
# B3: Compound 244 (peptide)
# peptide: Isovaleryl-APEK([AEEA-AEEA-γGlu-C18 diacid])PEEDAEPAELQRYYVSLRHYYNWLTRQRY-NH2
# SMILES: CC(C)CC(=O)N[C@@H](C)C(=O)N1CCC[C@H]1C(=O)N[C@@H](CCC(=O)O)C(=O)N[C@@H](CCCCNC(=O)COCCOCCNC(=O)COCCOCCNC(=O)CC[C@H](NC(=O)CCCCCCCCCCCCCCCCC(=O)O)C(=O)O)C(=O)N1CCC[C@H]1C(=O)N[C@@H](CCC(=O)O)C(=O)N[C@@H](CCC(=O)O)C(=O)N[C@@H](CC(=O)O)C(=O)N[C@@H](C)C(=O)N[C@@H](CCC(=O)O)C(=O)N1CCC[C@H]1C(=O)N[C@@H](C)C(=O)N[C@@H](CCC(=O)O)C(=O)N[C@@H](CC(C)C)C(=O)N[C@@H](CCC(N)=O)C(=O)N[C@@H](CCCNC(=N)N)C(=O)N[C@@H](Cc1ccc(O)cc1)C(=O)N[C@@H](Cc1ccc(O)cc1)C(=O)N[C@H](C(=O)N[C@@H](CO)C(=O)N[C@@H](CC(C)C)C(=O)N[C@@H](CCCNC(=N)N)C(=O)N[C@@H](Cc1c[nH]cn1)C(=O)N[C@@H](Cc1ccc(O)cc1)C(=O)N[C@@H](Cc1ccc(O)cc1)C(=O)N[C@@H](CC(N)=O)C(=O)N[C@@H](Cc1c[nH]c2ccccc12)C(=O)N[C@@H](CC(C)C)C(=O)N[C@H](C(=O)N[C@@H](CCCNC(=N)N)C(=O)N[C@@H](CCC(N)=O)C(=O)N[C@@H](CCCNC(=N)N)C(=O)N[C@@H](Cc1ccc(O)cc1)C(N)=O)[C@@H](C)O)C(C)C
# B4: Compound 18 (peptide)
# peptide: Isovaleryl-APEK([AEEA-AEEA-γGlu-C18 diacid])PEEDAEPEELQQYYVSLRHYYNWLTRQRY-NH2
# SMILES: CC(C)CC(=O)N[C@@H](C)C(=O)N1CCC[C@H]1C(=O)N[C@@H](CCC(=O)O)C(=O)N[C@@H](CCCCNC(=O)COCCOCCNC(=O)COCCOCCNC(=O)CC[C@H](NC(=O)CCCCCCCCCCCCCCCCC(=O)O)C(=O)O)C(=O)N1CCC[C@H]1C(=O)N[C@@H](CCC(=O)O)C(=O)N[C@@H](CCC(=O)O)C(=O)N[C@@H](CC(=O)O)C(=O)N[C@@H](C)C(=O)N[C@@H](CCC(=O)O)C(=O)N1CCC[C@H]1C(=O)N[C@@H](CCC(=O)O)C(=O)N[C@@H](CCC(=O)O)C(=O)N[C@@H](CC(C)C)C(=O)N[C@@H](CCC(N)=O)C(=O)N[C@@H](CCC(N)=O)C(=O)N[C@@H](Cc1ccc(O)cc1)C(=O)N[C@@H](Cc1ccc(O)cc1)C(=O)N[C@H](C(=O)N[C@@H](CO)C(=O)N[C@@H](CC(C)C)C(=O)N[C@@H](CCCNC(=N)N)C(=O)N[C@@H](Cc1c[nH]cn1)C(=O)N[C@@H](Cc1ccc(O)cc1)C(=O)N[C@@H](Cc1ccc(O)cc1)C(=O)N[C@@H](CC(N)=O)C(=O)N[C@@H](Cc1c[nH]c2ccccc12)C(=O)N[C@@H](CC(C)C)C(=O)N[C@H](C(=O)N[C@@H](CCCNC(=N)N)C(=O)N[C@@H](CCC(N)=O)C(=O)N[C@@H](CCCNC(=N)N)C(=O)N[C@@H](Cc1ccc(O)cc1)C(N)=O)[C@@H](C)O)C(C)C
# Biological target: T1, human neuropeptide Y2 receptor (human, UniProt P49146 1-381)
# T1 construct: whole, on cells; also called hNPY2 receptor; hNPY2-R
# T1 sequence (looked up): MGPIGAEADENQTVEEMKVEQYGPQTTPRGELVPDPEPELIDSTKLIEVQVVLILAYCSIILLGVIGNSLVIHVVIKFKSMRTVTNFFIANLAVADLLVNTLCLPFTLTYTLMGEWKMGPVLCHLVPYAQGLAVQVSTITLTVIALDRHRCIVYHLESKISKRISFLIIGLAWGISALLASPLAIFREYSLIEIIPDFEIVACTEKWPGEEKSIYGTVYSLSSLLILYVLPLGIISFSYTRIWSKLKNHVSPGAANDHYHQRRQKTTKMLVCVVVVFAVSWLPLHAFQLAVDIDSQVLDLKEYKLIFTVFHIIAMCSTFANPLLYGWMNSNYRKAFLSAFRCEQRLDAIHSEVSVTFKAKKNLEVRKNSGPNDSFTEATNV
# Assay: radioligand competition (125I-PYY(1-36)), hNPY2R membranes
# Outline: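 Commercial human Y2 receptor membranes (0.5 μg protein/well) were incubated with peptide for 2 h at room temperature in 50 mM HEPES, 5 mM MgCl₂, 1 mM CaCl₂, pH 7.4, with 0.2% ovalbumin. Bound radioligand was separated on PEI-soaked GF/C filters and counted by scintillation, and IC₅₀ came from nonlinear sigmoidal regression.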
row,Binder,Ki
1,B1,0.95 nM
2,B2,0.74 nM
3,B3,1.84 nM
4,B4,3.71 nM

# Biological target: T2, human NPY5 receptor (human, UniProt Q15761 1-445)
# T2 sequence (looked up): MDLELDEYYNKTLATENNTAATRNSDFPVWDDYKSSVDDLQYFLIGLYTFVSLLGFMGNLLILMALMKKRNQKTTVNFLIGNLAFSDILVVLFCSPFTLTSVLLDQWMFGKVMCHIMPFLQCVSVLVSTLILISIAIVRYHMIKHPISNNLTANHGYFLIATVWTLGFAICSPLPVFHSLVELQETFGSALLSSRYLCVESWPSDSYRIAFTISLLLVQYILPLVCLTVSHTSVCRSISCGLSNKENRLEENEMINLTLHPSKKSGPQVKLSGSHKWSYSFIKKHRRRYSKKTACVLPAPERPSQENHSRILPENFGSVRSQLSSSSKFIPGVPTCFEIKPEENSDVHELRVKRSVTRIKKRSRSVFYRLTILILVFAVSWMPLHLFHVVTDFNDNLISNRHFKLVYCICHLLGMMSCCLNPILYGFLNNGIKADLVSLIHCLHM
# Assay: cell-based or functional assay
row,Binder,EC50 (HTRF cAMP Gi assay)
1,B1,> 5000 nM
2,Isovaleryl-APEK([AEEA-AEEA-γGlu-C18 diacid])PEEDATPEEIQRYYVSLRHYYNWLTRQRY-NH2 [Compound 171],> 5000 nM
3,B2,> 5000 nM
4,B4,> 5000 nM

# Biological target: T3, human NPY1 receptor (human, UniProt P25929 1-384)
# T3 sequence (looked up): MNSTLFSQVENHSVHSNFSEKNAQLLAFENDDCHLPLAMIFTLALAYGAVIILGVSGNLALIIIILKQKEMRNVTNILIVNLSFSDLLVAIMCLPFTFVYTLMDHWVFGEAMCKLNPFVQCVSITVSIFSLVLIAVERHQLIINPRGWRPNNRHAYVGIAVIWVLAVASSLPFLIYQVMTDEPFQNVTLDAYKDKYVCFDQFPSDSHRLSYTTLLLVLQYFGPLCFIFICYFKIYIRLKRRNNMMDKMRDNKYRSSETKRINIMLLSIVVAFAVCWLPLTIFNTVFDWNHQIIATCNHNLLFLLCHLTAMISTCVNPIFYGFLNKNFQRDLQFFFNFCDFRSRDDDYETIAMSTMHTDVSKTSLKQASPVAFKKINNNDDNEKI
# Assay: cell-based or functional assay
row,Binder,EC50 (HTRF cAMP Gi assay)
1,B1,> 5000 nM
2,Isovaleryl-APEK([AEEA-AEEA-γGlu-C18 diacid])PEEDATPEEIQRYYVSLRHYYNWLTRQRY-NH2 [Compound 171],> 5000 nM
3,B2,> 5000 nM
4,B4,> 5000 nM

# Biological target: human NPY4 receptor (human, UniProt P50391 1-375)
# Assay: cell-based or functional assay
# Chain of human NPY4 receptor (P50391 whole entry): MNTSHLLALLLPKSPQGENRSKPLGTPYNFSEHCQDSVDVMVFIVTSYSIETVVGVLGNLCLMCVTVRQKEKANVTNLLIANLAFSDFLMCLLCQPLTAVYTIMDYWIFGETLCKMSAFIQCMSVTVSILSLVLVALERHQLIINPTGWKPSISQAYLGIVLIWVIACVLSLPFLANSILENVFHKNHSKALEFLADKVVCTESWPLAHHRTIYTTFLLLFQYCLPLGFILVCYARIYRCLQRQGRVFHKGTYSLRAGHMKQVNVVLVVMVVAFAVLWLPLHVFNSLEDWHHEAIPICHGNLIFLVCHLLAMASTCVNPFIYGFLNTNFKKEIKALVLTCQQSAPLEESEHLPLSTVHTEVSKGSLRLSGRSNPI
row,Binder,EC50 (HTRF cAMP Gi assay)
1,B1,> 5000 nM
2,Isovaleryl-APEK([AEEA-AEEA-γGlu-C18 diacid])PEEDATPEEIQRYYVSLRHYYNWLTRQRY-NH2 [Compound 171],> 5000 nM
3,B2,> 5000 nM
4,B4,> 5000 nM

# Biological target: T1, human neuropeptide Y2 receptor
# Assay: cell-based or functional assay
row,Binder,EC50 (HTRF cAMP Gi assay)
1,B1,0.131 nM
2,B2,0.334 nM
3,B4,0.167 nM
